Patent publication US7605133 (PANACEA PHARMACEUTICALS, dated 2009)
Ends that are not written are not given here.

Assays:
[1] = target: T1, NAC portion of α-synuclein (approx. amino acids 61-87) (human, UniProt P37840 61-87); experiment: phage display selection
T1 construct: range 61-87; also called α-synuclein 61-87 peptide

[2] = target: T1, NAC portion of α-synuclein (approx. …); experiment: phage display selection with the α-synuclein 121-131 and 61-87 peptides as the bait
[3] = target: α-synuclein (recombinant, wildtype) (human, UniProt P37840 1-140); experiment: cell-based or functional assay

B1: WPFHHHR (peptide)
peptide: WPFHHHR
notes: 7-mer from phage display
Question: Does B1 bind [1]?
Answer: Result: binds

B2: THIHHPS (peptide)
peptide: THIHHPS
notes: 7-mer from phage display
Question: Does B2 bind [1]?
Answer: Result: binds

B3: phage containing the SLKRLPK (SEQ ID NO: 7) peptide (peptide)
chain: SLKRLPK
modifications: also: displayed on phage coat protein
notes: also called SLKRLPK phage; not shown: phage coat protein that carries the 7-mer (New England Biolabs phage display kit); neither the protein nor any linker is
Question: Does B3 bind [2]?
Answer: Result: binds

B4: SLKRLPK (peptide)
peptide: SLKRLPK
notes: also called the peptide
Question: Does B4 bind [1]?
Answer: Result: binds

Question: And the “inhibition of iron-induced α-synuclein aggregation in vitro, densitometric quantification, 10-fold excess of the peptide” value [3]?
Answer: The value was 38%.

B5: RLRGRNQ (peptide)
peptide: RLRGRNQ
notes: 7-mer from phage display
Question: Does B5 bind [1]?
Answer: Result: binds

B6: HLYHHKT (peptide)
peptide: HLYHHKT
notes: 7-mer from phage display
Question: Does B6 bind [1]?
Answer: Result: binds
